Paper PMC8980211 (2022)

Target: SARS-CoV-2 RBD protein (immobilised in SPR) (SARS-CoV-2, UniProt P0DTC2 319-541)
Test: SPR

B1: mAb 35B5 (antibody, V domains shown)
VH: QVQLLESGGGLVQPGRSLRLSCAASGFTFDDYAMHWVRQAPGKGLEWVSGVSWNSGTIGYADSVKGRFTISRDNAKNSLYLHMRSLRAEDTALYYCAKAVEMVRGLMGLGADPEYGMDVWGQGTTVTVSS
VL: not shown
In the case of B1, the koff is reported as 5.49e-06 s⁻¹.
